According to article PMC3760141 (Cell reports, 2013):
Substitutions are numbered along the chain they refer to. In names and notes the source's numbering stands.

B1: p202 HIN2 (K244-K445) (domain or fragment, mouse, UniProt Q9R002 244-445, looked up)
chain: KLLKESFEGDGYHKGPKQVVALKATKLFTYDSIKSKKMFHATVATDTEFFRVMVFEENLEKKFIPGNTIALSDYFGMYGSLAIHEYSSVSEVKSQNKEDSSSSDERLIEHLKICDLHLQTKERLVDGEFKVYRKSTGNNCICYGIWDDTGAMKVVVSGQLTSVNCEIGNTIRLVCFELTSNADEWFLRSTRYSYMEVIMPEK
B2: mouse AIM2 HIN (domain or fragment, UniProt Q91VJ1 144-341, looked up)
chain: MVAEQEAIREDLQKDPLVVTVLKAINPFECETQEGRQEIFHATVATETDFFFVKVLNAQFKDKFIPKRTIKISNYLWHSNFMEVTSSSVVVDVESNHEVPNNVVKRARETPRISKLKIQPCGTIVNGLFKVQKITEEKDRVLYGIHDKTGTMEVLVLGNPSKTKCEEGDKIRLTFFEVSKNGVKIQLKSGPCSFFKVI
B3: p202 HIN2 R376E (domain or fragment, mouse, UniProt Q9R002 244-445, looked up)
chain: B1 chain with R133E
B4: full-length p202 (purified) (natural protein, mouse, UniProt Q9R002 1-445, looked up)
chain: MSNRNLRSSTNSEFSEGQHQTPSSDSSGHGEDQPQASPGPNKKSHTPKKNISKGAVLHEKPMTVMVLTATEPFNYKEGKENMFHATVATESQYYRVKVFNMDLKEKFTENKFITISKYFNSSGILEINETATVSEAAPNQIIEVPKNIIRSAKETLKISKIKELDSGTLIYGVFAVEKKKVNDKSITFKIKDNEDNIKVVWDKKQHNINYEKGDKLQLFSFHLRKGNGKPILHSGNHSFIKGEKLLKESFEGDGYHKGPKQVVALKATKLFTYDSIKSKKMFHATVATDTEFFRVMVFEENLEKKFIPGNTIALSDYFGMYGSLAIHEYSSVSEVKSQNKEDSSSSDERLIEHLKICDLHLQTKERLVDGEFKVYRKSTGNNCICYGIWDDTGAMKVVVSGQLTSVNCEIGNTIRLVCFELTSNADEWFLRSTRYSYMEVIMPEK
B5: p202, endogenous in bone marrow-derived macrophages (natural protein, UniProt Q9R002 1-445, looked up)
chain: B4 chain

How the values were obtained:
[1] = biological target: B2; test: ITC
[2] = biological target: the molecule itself; test: SEC-MALS
[3] = biological target: B1; test: ITC
[4] = biological target: the molecule itself; test: cross-linking

| Binder | stoichiometry N [2] | further results |
| --- | --- | --- |
| B1 | 4 | stoichiometry N [1]: 2 p202 HIN2 per AIM2 HIN |
| B2 |  | Kd [3]: 12.6 µM |
| B3 | 2 |  |
| B4 | 4 |  |
| B5 |  | stoichiometry N [4]: 4 |
